Data on three substances can be found in PMC13365592.

Holding throughout (assay): cryo-EM structure
Experiment [1] concerns the target MEL_213b (melbournevirus).
Experiment [2] concerns the target MEL_256 (melbournevirus).
For experiment [3], the target named is major capsid protein MEL_305 (melbournevirus).

Take MEL_213b (natural protein): in experiment [1], the stoichiometry N is 2. As for MEL_256 (natural protein), the stoichiometry N in experiment [2] was determined as 5. For the substance “major capsid protein MEL_305 (natural protein)”, the stoichiometry N in experiment [3] is 3.
